Data reported in patent publication US20210032299A1 (Eli Lilly, published 2021).
Starred links: 1 amine or outer side, 2 acyl side, 3 side chain; linkers in the order of their positions; H or OH if unused. Non-standard residues stand in square brackets, D forms with d. Groups on a side chain read outwards from the residue. No end group written: not given here. *: point of attachment. C20 diacid = O=C(O)CCCCCCCCCCCCCCCCCCC(=O)*; γGlu = O=C(O)[C@H](CCC(=O)[*:2])N[*:1]; 4Pal = N[C@@H](Cc1ccncc1)C(=O)O; αMeL = CC(C)C[C@](C)(N)C(=O)O; AEEA = NCCOCCOCC(=O)O; Aib = CC(C)(N)C(=O)O

T1: human glucose-dependent insulinotropic polypeptide (GIP) receptor (human, UniProt P48546 22-466)
T1 construct: whole, on cells; Assayed as crude membranes of stably transfected CHO cells; also called hGIPR; human GIP receptor
T1 sequence (looked up): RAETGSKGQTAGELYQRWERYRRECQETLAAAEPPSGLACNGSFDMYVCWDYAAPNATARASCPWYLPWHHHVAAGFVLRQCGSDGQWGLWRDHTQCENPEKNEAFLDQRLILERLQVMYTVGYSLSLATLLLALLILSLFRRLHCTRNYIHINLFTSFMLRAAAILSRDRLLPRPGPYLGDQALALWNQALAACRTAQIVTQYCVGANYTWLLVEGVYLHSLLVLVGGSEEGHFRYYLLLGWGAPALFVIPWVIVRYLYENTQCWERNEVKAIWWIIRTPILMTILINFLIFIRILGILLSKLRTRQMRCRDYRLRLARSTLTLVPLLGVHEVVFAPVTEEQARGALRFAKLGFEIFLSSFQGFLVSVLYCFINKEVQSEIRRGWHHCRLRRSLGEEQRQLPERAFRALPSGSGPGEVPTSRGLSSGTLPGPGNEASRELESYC

B1: Example 70 (peptide)
peptide: Y[Aib]EGTFISDYSI[αMeL]LDKK([AEEA-AEEA-γGlu-C20 diacid])HQ[Aib]DFVE[4Pal]LLATGPSSGAPPPS-NH2
modifications: N-terminus assumed
SMILES: CC[C@H](C)[C@H](NC(=O)[C@H](Cc1ccccc1)NC(=O)[C@@H](NC(=O)CNC(=O)[C@H](CCC(=O)O)NC(=O)C(C)(C)NC(=O)[C@@H](N)Cc1ccc(O)cc1)[C@@H](C)O)C(=O)N[C@@H](CO)C(=O)N[C@@H](CC(=O)O)C(=O)N[C@@H](Cc1ccc(O)cc1)C(=O)N[C@@H](CO)C(=O)N[C@H](C(=O)N[C@@](C)(CC(C)C)C(=O)N[C@@H](CC(C)C)C(=O)N[C@@H](CC(=O)O)C(=O)N[C@@H](CCCCN)C(=O)N[C@@H](CCCCNC(=O)COCCOCCNC(=O)COCCOCCNC(=O)CC[C@H](NC(=O)CCCCCCCCCCCCCCCCCCC(=O)O)C(=O)O)C(=O)N[C@@H](Cc1c[nH]cn1)C(=O)N[C@@H](CCC(N)=O)C(=O)NC(C)(C)C(=O)N[C@@H](CC(=O)O)C(=O)N[C@@H](Cc1ccccc1)C(=O)N[C@H](C(=O)N[C@@H](CCC(=O)O)C(=O)N[C@@H](Cc1ccncc1)C(=O)N[C@@H](CC(C)C)C(=O)N[C@@H](CC(C)C)C(=O)N[C@@H](C)C(=O)N[C@H](C(=O)NCC(=O)N1CCC[C@H]1C(=O)N[C@@H](CO)C(=O)N[C@@H](CO)C(=O)NCC(=O)N[C@@H](C)C(=O)N1CCC[C@H]1C(=O)N1CCC[C@H]1C(=O)N1CCC[C@H]1C(=O)N[C@@H](CO)C(N)=O)[C@@H](C)O)C(C)C)[C@@H](C)CC
B2: Example 86 (peptide)
peptide: Y[Aib]EGTFISDYSI[αMeL]LDEK([AEEA-AEEA-γGlu-C20 diacid])HQ[Aib]DFVE[4Pal]LLAGGPSSGAPPPS-NH2
modifications: N-terminus assumed
SMILES: CC[C@H](C)[C@H](NC(=O)[C@H](Cc1ccccc1)NC(=O)[C@@H](NC(=O)CNC(=O)[C@H](CCC(=O)O)NC(=O)C(C)(C)NC(=O)[C@@H](N)Cc1ccc(O)cc1)[C@@H](C)O)C(=O)N[C@@H](CO)C(=O)N[C@@H](CC(=O)O)C(=O)N[C@@H](Cc1ccc(O)cc1)C(=O)N[C@@H](CO)C(=O)N[C@H](C(=O)N[C@@](C)(CC(C)C)C(=O)N[C@@H](CC(C)C)C(=O)N[C@@H](CC(=O)O)C(=O)N[C@@H](CCC(=O)O)C(=O)N[C@@H](CCCCNC(=O)COCCOCCNC(=O)COCCOCCNC(=O)CC[C@H](NC(=O)CCCCCCCCCCCCCCCCCCC(=O)O)C(=O)O)C(=O)N[C@@H](Cc1c[nH]cn1)C(=O)N[C@@H](CCC(N)=O)C(=O)NC(C)(C)C(=O)N[C@@H](CC(=O)O)C(=O)N[C@@H](Cc1ccccc1)C(=O)N[C@H](C(=O)N[C@@H](CCC(=O)O)C(=O)N[C@@H](Cc1ccncc1)C(=O)N[C@@H](CC(C)C)C(=O)N[C@@H](CC(C)C)C(=O)N[C@@H](C)C(=O)NCC(=O)NCC(=O)N1CCC[C@H]1C(=O)N[C@@H](CO)C(=O)N[C@@H](CO)C(=O)NCC(=O)N[C@@H](C)C(=O)N1CCC[C@H]1C(=O)N1CCC[C@H]1C(=O)N1CCC[C@H]1C(=O)N[C@@H](CO)C(N)=O)C(C)C)[C@@H](C)CC
B3: Example 79 (peptide)
peptide: Y[Aib]EGTFISDYSI[αMeL]LDKK([AEEA-AEEA-γGlu-C20 diacid])HQ[Aib]DFVE[4Pal]LLAQGPSSGAPPPS-NH2
modifications: N-terminus assumed
SMILES: CC[C@H](C)[C@H](NC(=O)[C@H](Cc1ccccc1)NC(=O)[C@@H](NC(=O)CNC(=O)[C@H](CCC(=O)O)NC(=O)C(C)(C)NC(=O)[C@@H](N)Cc1ccc(O)cc1)[C@@H](C)O)C(=O)N[C@@H](CO)C(=O)N[C@@H](CC(=O)O)C(=O)N[C@@H](Cc1ccc(O)cc1)C(=O)N[C@@H](CO)C(=O)N[C@H](C(=O)N[C@@](C)(CC(C)C)C(=O)N[C@@H](CC(C)C)C(=O)N[C@@H](CC(=O)O)C(=O)N[C@@H](CCCCN)C(=O)N[C@@H](CCCCNC(=O)COCCOCCNC(=O)COCCOCCNC(=O)CC[C@H](NC(=O)CCCCCCCCCCCCCCCCCCC(=O)O)C(=O)O)C(=O)N[C@@H](Cc1c[nH]cn1)C(=O)N[C@@H](CCC(N)=O)C(=O)NC(C)(C)C(=O)N[C@@H](CC(=O)O)C(=O)N[C@@H](Cc1ccccc1)C(=O)N[C@H](C(=O)N[C@@H](CCC(=O)O)C(=O)N[C@@H](Cc1ccncc1)C(=O)N[C@@H](CC(C)C)C(=O)N[C@@H](CC(C)C)C(=O)N[C@@H](C)C(=O)N[C@@H](CCC(N)=O)C(=O)NCC(=O)N1CCC[C@H]1C(=O)N[C@@H](CO)C(=O)N[C@@H](CO)C(=O)NCC(=O)N[C@@H](C)C(=O)N1CCC[C@H]1C(=O)N1CCC[C@H]1C(=O)N1CCC[C@H]1C(=O)N[C@@H](CO)C(N)=O)C(C)C)[C@@H](C)CC
B4: Example 78 (peptide)
peptide: Y[Aib]EGTFISDYSI[αMeL]LDKK([AEEA-AEEA-γGlu-C20 diacid])HQ[Aib]DFVE[4Pal]LLAAGPSSGAPPPS-NH2
modifications: N-terminus assumed
SMILES: CC[C@H](C)[C@H](NC(=O)[C@H](Cc1ccccc1)NC(=O)[C@@H](NC(=O)CNC(=O)[C@H](CCC(=O)O)NC(=O)C(C)(C)NC(=O)[C@@H](N)Cc1ccc(O)cc1)[C@@H](C)O)C(=O)N[C@@H](CO)C(=O)N[C@@H](CC(=O)O)C(=O)N[C@@H](Cc1ccc(O)cc1)C(=O)N[C@@H](CO)C(=O)N[C@H](C(=O)N[C@@](C)(CC(C)C)C(=O)N[C@@H](CC(C)C)C(=O)N[C@@H](CC(=O)O)C(=O)N[C@@H](CCCCN)C(=O)N[C@@H](CCCCNC(=O)COCCOCCNC(=O)COCCOCCNC(=O)CC[C@H](NC(=O)CCCCCCCCCCCCCCCCCCC(=O)O)C(=O)O)C(=O)N[C@@H](Cc1c[nH]cn1)C(=O)N[C@@H](CCC(N)=O)C(=O)NC(C)(C)C(=O)N[C@@H](CC(=O)O)C(=O)N[C@@H](Cc1ccccc1)C(=O)N[C@H](C(=O)N[C@@H](CCC(=O)O)C(=O)N[C@@H](Cc1ccncc1)C(=O)N[C@@H](CC(C)C)C(=O)N[C@@H](CC(C)C)C(=O)N[C@@H](C)C(=O)N[C@@H](C)C(=O)NCC(=O)N1CCC[C@H]1C(=O)N[C@@H](CO)C(=O)N[C@@H](CO)C(=O)NCC(=O)N[C@@H](C)C(=O)N1CCC[C@H]1C(=O)N1CCC[C@H]1C(=O)N1CCC[C@H]1C(=O)N[C@@H](CO)C(N)=O)C(C)C)[C@@H](C)CC
B5: Example 85 (peptide)
peptide: Y[Aib]EGTFISDYSI[αMeL]LDEK([AEEA-AEEA-γGlu-C20 diacid])HQ[Aib]DFVE[4Pal]LLAAGPSSGAPPPS-NH2
modifications: N-terminus assumed
SMILES: CC[C@H](C)[C@H](NC(=O)[C@H](Cc1ccccc1)NC(=O)[C@@H](NC(=O)CNC(=O)[C@H](CCC(=O)O)NC(=O)C(C)(C)NC(=O)[C@@H](N)Cc1ccc(O)cc1)[C@@H](C)O)C(=O)N[C@@H](CO)C(=O)N[C@@H](CC(=O)O)C(=O)N[C@@H](Cc1ccc(O)cc1)C(=O)N[C@@H](CO)C(=O)N[C@H](C(=O)N[C@@](C)(CC(C)C)C(=O)N[C@@H](CC(C)C)C(=O)N[C@@H](CC(=O)O)C(=O)N[C@@H](CCC(=O)O)C(=O)N[C@@H](CCCCNC(=O)COCCOCCNC(=O)COCCOCCNC(=O)CC[C@H](NC(=O)CCCCCCCCCCCCCCCCCCC(=O)O)C(=O)O)C(=O)N[C@@H](Cc1c[nH]cn1)C(=O)N[C@@H](CCC(N)=O)C(=O)NC(C)(C)C(=O)N[C@@H](CC(=O)O)C(=O)N[C@@H](Cc1ccccc1)C(=O)N[C@H](C(=O)N[C@@H](CCC(=O)O)C(=O)N[C@@H](Cc1ccncc1)C(=O)N[C@@H](CC(C)C)C(=O)N[C@@H](CC(C)C)C(=O)N[C@@H](C)C(=O)N[C@@H](C)C(=O)NCC(=O)N1CCC[C@H]1C(=O)N[C@@H](CO)C(=O)N[C@@H](CO)C(=O)NCC(=O)N[C@@H](C)C(=O)N1CCC[C@H]1C(=O)N1CCC[C@H]1C(=O)N1CCC[C@H]1C(=O)N[C@@H](CO)C(N)=O)C(C)C)[C@@H](C)CC

biological target: T2, human glucagon receptor (human, UniProt P47871 26-477); assay: SPA, displacement of [125I]-Gcg from hGcgR membranes, 0.1% bacitracin
T2 construct: whole, on cells; Assayed as crude membranes of stably transfected HEK293 cells; also called hGcgR; GcgR
Procedure, shortened: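 Binding buffer: 25 mM HEPES pH 7.4, 2.5 mM CaCl₂, 1 mM MgCl₂, 0.003% Tween-20, protease inhibitors without EDTA. Counted by scintillation after 12 h incubation/settling at room temperature. Four-parameter nonlinear fit; Kᵢ given as geometric mean ± SEM of independent replicates run on different days.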

T2 sequence (P47871 26-477): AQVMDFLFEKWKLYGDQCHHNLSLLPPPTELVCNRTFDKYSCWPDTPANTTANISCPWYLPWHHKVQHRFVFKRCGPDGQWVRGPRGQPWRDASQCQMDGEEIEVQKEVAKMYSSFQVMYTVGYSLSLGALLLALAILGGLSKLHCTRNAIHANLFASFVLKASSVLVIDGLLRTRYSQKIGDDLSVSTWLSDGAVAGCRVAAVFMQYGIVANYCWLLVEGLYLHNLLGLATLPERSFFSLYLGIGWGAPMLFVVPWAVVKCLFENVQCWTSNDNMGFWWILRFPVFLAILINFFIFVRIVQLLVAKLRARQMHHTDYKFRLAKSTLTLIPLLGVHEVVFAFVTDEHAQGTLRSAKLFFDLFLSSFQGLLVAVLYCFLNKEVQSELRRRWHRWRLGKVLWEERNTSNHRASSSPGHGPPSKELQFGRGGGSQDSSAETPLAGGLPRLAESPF

Row | Binder | Ki
1 | B1 | 857 nM
2 | B2 | 462 nM
3 | B3 | 888 nM
4 | B4 | 505 nM
5 | B5 | 800 nM

biological target: T3, human GLP-1 receptor (human, UniProt P43220 24-463); assay: SPA, displacement of [125I]-GLP-1 from hGLP-1R membranes, 0.1% bacitracin
T3 construct: whole, on cells; Assayed as crude membranes of stably transfected HEK293 cells; also called hGLP1R; hGLP-1R
Procedure, shortened: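 Binding buffer: 25 mM HEPES pH 7.4, 2.5 mM CaCl₂, 1 mM MgCl₂, 0.1% bacitracin, 0.003% Tween-20, protease inhibitors without EDTA. Four-parameter nonlinear regression; Kᵢ given as geometric mean ± SEM, n = independent replicates run on different days.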

Row | Binder | Ki
6 | B1 | 570 nM
7 | B2 | 108 nM
8 | B3 | 486 nM
9 | B4 | 394 nM
10 | B5 | 220 nM

biological target: T1, human glucose-dependent insulinotropic …; assay: SPA, displacement of [125I]-GIP from hGIPR membranes, 0.1% bacitracin

Row | Binder | Ki
11 | B1 | 0.0421 nM
12 | B2 | 0.0533 nM
13 | B3 | 0.0229 nM
14 | B4 | 0.0236 nM
15 | B5 | 0.0529 nM
